These results are taken from patent US20140243268A1 (GEORGIA REGENTS RESEARCH INSTITUTE, published 2014).

The target in this assay is T1, ErbB2 (UniProt P04626 23-1255, limits assumed).
T1 construct: also called Her2; HER2
Description: not described (data not shown).

B1: Erbin1-693βgal, fusion protein containing the N-terminal 693 aa residues of Erbin and β-galactosidase (other, mouse, UniProt Q80TH2 1-693, looked up)
chain: MTTKRSLFVRLVPCRCLRGEEETVTTLDYSHCSLEQVPKEIFTFEKTLEELYLDANQIEELPKQLFNCQSLHKLSLPDNDLTTLPASIANLINLRELDVSKNGIQEFPENIKNCKVLTIVEASVNPISKLPDGFSQLLNLTQLYLNDAFLEFLPANFGRLTKLQILELRENQLKMLPKTMNRLTQLERLDLGSNEFTEVPEVLEQLSGLREFWMDGNRLTFIPGFIGSLRQLTYLDVSKNNIEMVEEGISTCENLQDFLLSSNSLQQLPETIGSLKNVTTLKIDENQLMYLPDSIGGLRSIEELDCSFNEIEALPSSIGQLTNMRTFAADHNYLQQLPPEIGNWKNITVLFLHCNKLETLPEEMGDMQKLKVINLSDNRLKNLPFSFTKLQQLTAMWLSDNQSKPLIPLQKETDTETQKMVLTNYMFPQQPRTEDVMFISDNESFNPALWEEQRKQRAQVAFECDEDKDEREAPPREGNLKRYPTPYPDELKNMVKTVQTIVHRLKDEETNEESGRDLKQHEDQQVVNKDKCVKTSESTTTKSKLDEREKYMNSVQKMSEPEAETNGGNLPVTASMKLSGNLKHIVNHDDVFEESEELSSDEEMKMAEMRPPLIESSINQPKVVALSNNKKDDAKDADSLSDEVTHNSNQNNSNCSSPSRMSDSVSLNTDSSQDTSLCSPVKQTPVDSNSKVR
notes: Expressed in erbin ΔC/ΔC mice; lacks residues 694-1450 of mouse Erbin, including the PDZ domain; not shown: β-galactosidase encoded by the inserted lacZ gene
With B1, the binding result is recorded as “no binding”.
